{
  "source": "paper doi:10.1101/444885",
  "about": "(bioRxiv, 2018)",
  "binders": {"B1": {"name": "DnaA N191C, labelled with Cy3B or Atto647N (natural protein)", "chain": "MENILDLWNQALAQIEKKLSKPSFETWMKSTKAHSLQGDTLTITAPNEFARDWLESRYLHLIADTIYELTGEELSIKFVIPQNQDVEDFMPKPQVKKAVKEDTSDFPQNMLNPKYTFDTFVIGSGNRFAHAASLAVAEAPAKAYNPLFIYGGVGLGKTHLMHAIGHYVIDHNPSAKVVYLSSEKFTNEFICSIRDNKAVDFRNRYRNVDVLLIDDIQFLAGKEQTQEEFFHTFNTLHEESKQIVISSDRPPKEIPTLEDRLRSRFEWGLITDITPPDLETRIAILRKKAKAEGLDIPNEVMLYIANQIDSNIRELEGALIRVVAYSSLINKDINADLAAEALKDIIPSSKPKVITIKEIQRVVGQQFNIKLEDFKAKKRTKSVAFPRQIAMYLSREMTDSSLPKIGEEFGGRDHTTVIHAHEKISKLLADDEQLQQHVKEIKEQLK"}, "B2": {"name": "DnaA A198C, labelled with Cy3B or Atto647N (natural protein)", "chain": "B1 chain with C191N, A198C", "modifications": "Cy3B-maleimide or Atto647N-maleimide on the cysteine at 198"}, "B3": {"name": "DnaA(N191C/A198C) (natural protein)", "chain": "B1 chain with A198C"}, "B4": {"name": "DnaA domain I (residues 1-81) (domain or fragment)", "chain": "MENILDLWNQALAQIEKKLSKPSFETWMKSTKAHSLQGDTLTITAPNEFARDWLESRYLHLIADTIYELTGEELSIKFVIP"}, "B5": {"name": "truncated DnaD DDBH2 domain (residues 129-196) (domain or fragment)", "chain": "LYTIFEEEFARPLSPLECETLAIWQDQDQHDAQLIKHALKEAVLSGKLSFRYIDRILFEWKKNGLKTV"}, "B6": {"name": "DnaD (full length) (natural protein)", "chain": "MKKQQFIDMQEQGTSTIPNLLLTHYKQLGLNETELILLLKIKMHLEKGSYFPTPNQLQEGMSISVEECTNRLRMFIQKGFLFIEECEDQNGIKFEKYSLQPLWGKLYEYIQLAQNQTQERKAEGEQKSLYTIFEEEFARPLSPLECETLAIWQDQDQHDAQLIKHALKEAVLSGKLSFRYIDRILFEWKKNGLKTVEQAKIHSQKFRRVQAKQNEPQKEYKRQVPFYNWLEQ"}},
  "key": {"FRET or BRET": {"molecular_target": "the molecule itself", "assay": "FRET or BRET"}, "cross-linking": {"molecular_target": "the molecule itself", "assay": "cross-linking"}, "[1]": {"molecular_target": "T1, DnaD DDBH2 domain (residues 129-232) (Bacillus subtilis, UniProt P39787 129-232)", "T1 sequence": "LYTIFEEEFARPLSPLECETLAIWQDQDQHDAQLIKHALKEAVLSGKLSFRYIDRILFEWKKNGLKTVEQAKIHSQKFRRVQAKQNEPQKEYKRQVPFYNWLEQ", "assay": "NMR titration"}, "[2]": {"molecular_target": "T1, DnaD DDBH2 domain (residues 129-232)", "assay": "NMR titration", "remark": "listed apart in the source"}, "[3]": {"molecular_target": "B4", "assay": "NMR titration"}, "DnaA(N191C/A198C)": {"molecular_target": "B3", "assay": "loss and rescue of BMOE cross-linking of DnaA-DNA filaments"}},
  "note": "Where a chain is given by its changes, count along the chain named. Numbers in names are those of the source. Like-named read-outs stand apart in the source and are kept apart here.",
  "data": [
    {"binder": "B1", "values": [
      {"measurement": "binding result", "setting": "FRET or BRET", "result": "binds"}
    ]},
    {"binder": "B2", "values": [
      {"measurement": "binding result", "setting": "FRET or BRET", "result": "binds"}
    ]},
    {"binder": "B3", "values": [
      {"measurement": "binding result", "setting": "cross-linking", "result": "binds"}
    ]},
    {"binder": "B4", "values": [
      {"measurement": "Kd", "setting": "[1]", "result": "768 ± 168", "unit": "µM"},
      {"measurement": "Kd", "setting": "[2]", "result": "665 ± 251", "unit": "µM"}
    ]},
    {"binder": "B5", "values": [
      {"measurement": "binding result", "setting": "[3]", "result": "binds"}
    ]},
    {"binder": "B6", "values": [
      {"measurement": "binding result", "setting": "DnaA(N191C/A198C)", "result": "binds"}
    ]}
  ]
}
